Among the data in patent publication US20090221691A1 (UNIVERSITY OF ROCHESTER, published 2009) are % of Wild-Type Signal and IC50 values, retold here.

The target of experiment [1] is biotinylated Gβ1γ2 mutant His311Ala (rat) (UniProt P54311). The experiment can be described thus: phage ELISA, % of wild-type b-βγ.
In experiment [2] the target is biotinylated Gβ1γ2 mutant His62Ala (rat) (UniProt P54311). The experiment can be described thus: phage ELISA, % of wild-type b-βγ.
Experiment [3] deals with biotinylated Gβ1γ2 mutant Leu117Ala (rat) (UniProt P54311). The experiment can be described thus: phage ELISA, % of wild-type b-βγ.
The target in experiment [4] is biotinylated Gβ1γ2 mutant Trp99Ala (rat) (UniProt P54311). The experiment can be described thus: phage ELISA, % of wild-type b-βγ.
Experiment [5] deals with biotinylated Gβ1γ2 mutant Met188Ala (rat) (UniProt P54311). The experiment can be described thus: phage ELISA, % of wild-type b-βγ.
The target of experiment [6] is biotinylated Gβ1γ2 mutant Lys57Ala (rat) (UniProt P54311). The experiment can be described thus: phage ELISA, % of wild-type b-βγ.
Experiment [7] concerns the target biotinylated Gβ1γ2 mutant Tyr145Ala (rat) (UniProt P54311). The experiment can be described thus: phage ELISA, % of wild-type b-βγ.
The target of experiment [8] is biotinylated Gβ1γ2 mutant Phe292Ala (rat) (UniProt P54311). The experiment can be described thus: phage ELISA, % of wild-type b-βγ.
Experiment [9] has as its target biotinylated Gβ1γ2 mutant Asn230Ala (rat) (UniProt P54311). The experiment can be described thus: phage ELISA, % of wild-type b-βγ.
The target of experiment [10] is biotinylated Gβ1γ2 mutant Arg314Ala (rat) (UniProt P54311). The experiment can be described thus: phage ELISA, % of wild-type b-βγ.
Experiment [11] concerns the target biotinylated Gβ1γ2 mutant Met101Ala (rat) (UniProt P54311). The experiment can be described thus: phage ELISA, % of wild-type b-βγ.
Experiment [12] has as its target biotinylated Gβ1γ2 mutant Asp246Ser (rat) (UniProt P54311). The experiment can be described thus: phage ELISA, % of wild-type b-βγ.
Experiment [13] deals with biotinylated Gβ1γ2 mutant Trp332Ala (rat) (UniProt P54311). The experiment can be described thus: phage ELISA, % of wild-type b-βγ.
The target in experiment [14] is T1, biotinylated Gβ1γ2, wild-type (BAP-rat Gβ1 with Gγ2) (rat, UniProt P54311 1-340; P63212 2-68, biotin on the lysine acceptor residue of the BAP).
T1 construct: immobilized on streptavidin in the assays; also called b-βγ; b-Gβ1γ2; not shown: 20 amino acid biotin acceptor peptide (BAP) fused to the N-terminus
The experiment can be described thus: flow cytometry competition, blocking Gα-Gβγ interactions. The protocol: Assays were used to determine peptide effects on Gα-Gβγ interactions included competition and dissociation assays (Ghosh, et al. (2003) supra). […] The bead-associated fluorescence was then recorded in a BD Biosciences FACSCALIBUR™ flow cytometer. Data was corrected for background fluorescence and fit with a sigmoid dose response curve using Graph Pad Prism 4.

As to phage displaying SIGK peptide, the % of Wild-Type Signal in experiment [1] is 94.3%; in experiment [2], 111%; in experiment [3] it was 2.1%; in [4], 66%; in experiment [5], 2.5%; in [6], 18.6%. Also, the % of Wild-Type Signal stood at 0.8% in [7]; 109% in experiment [8]; 22.4% in experiment [9]; 50.2% in experiment [10]; 32.2% in [11]; 66.5% in [12]. This molecule also had a % of Wild-Type Signal in experiment [13] of 7.1%.
In experiment [14], SIRKALNILAYPDYD (Free peptide) [SIRK(Gly10Ala)] registered a half-inhibitory concentration (IC50) of around 80 µM.
